Earlier results on 1 substance are cited in article PMC5753338.

The target of this series is BAIAP2L1/IRTKS SH3 (Homo sapiens) (UniProt Q9UHR4).
UniProt Q9UHR4, sequence (Q9UHR4 336-405): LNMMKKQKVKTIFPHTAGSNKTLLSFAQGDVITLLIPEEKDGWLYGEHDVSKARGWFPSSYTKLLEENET

As usually defined, the Kd is a measure of binding affinity in units of concentration. EspFU PxxP motifs (from UniProt P0DJ88): the Kd is 500 nM.
